Experimental data from the DeepSol protein solubility set.

Assay: soluble on expression in E. coli; label from the status in PepcDB or PDB records

Row | Sequence | soluble on expression in E. coli
1 | MAHHHHHHMKCQKIRRDIFIYMLYNFSFCAGKKEDKDKGKDKDKEKKKLESVPISHMGKKKKKNKGTSGHSKLPNVTPNTKCRLKLLKLERIKDYLLLEEEYITNQEQIKSSDDKNYVKLKIDDLRGSPVSVGTLEELIDENHGIIATSVGPEYYVNILSFVDKDLLEPGCSVLLNNKTNSVVGILLDEVDPLVSVMKVEKAPLESYADIGGLESQIQEIKEAVELPLTHPELYEDIGIKPPKGVILYGPPGTGKTLLAKAVANETSATFLRVVGSELIQKYLGDGPKLVREMFKVAEEHAPSIVFIDEIDAVGTKRYEATSGGEREIQRTMLELLNQLDGFDSRGDVKVIMATNRIDSLDPALIRPGRIDRKIQLPNPDTKTKRRIFQIHTSKMTMSPDVDLEEFVMSKDELSGADIKAICTEAGLLALRERRMKITQADLRKARDKALFQKKGNIPEGLYL | not soluble
2 | MAHHHHHHMKDYNVTMEVFVQEPDDYVQDQRLLEEILNLTAHQALEAINKPLHEGVLSLSGNVGTMKEKDTITPLARGKPNGVLTQVPTEARREAEERLRREEEERLGGTQEMKFTFSGTIEDVLFRGEFRYKEMKLNDFLLLRFGGRGVVATNRSVLLEEFFKEPARYVPGARVLNEIKITVRYLRIEGTVREEMDLEEVVRMLHHESVFPLSNGRNMKEMTQPLPLQGEN | not soluble
3 | MAHHHHHHMKFAFVFPGQGSQSVGMLNAFADVAVVRETLDEASDALGQDIGKLIADGPADELNLTTNTQPVMLTAAYACYRAWQQAGGAQPSIVAGHSLGEYTALVAAGAIAFRDALPLVRFRAQAMQTAVPVGVGGMAAILGLDDDTVRAVCAEASATGVVEAVNFNAPAQVVIAGTKAGIEKACEIAKEKGAKRALPLPVSAPFHSSLLKPASDKLREYLAGVDVKAPKISVVNNIDVAVVSDPAAIKDALVRQAAGPVRWVECVQHIAREGVTHVIECGPGKVLAGLTKRIDGNLVGASVFDPASLDEALKLAAA | soluble
4 | MAHHHHHHMKKSGKGRIKLKIQINTEEEENKENIIYENKNKKRKGSDISDDNDESIEKFKDLDNSYASDRKQKEDNDLEKKIISIISQLTKITCICEDKKNNINNLENEKICKKLIKQMYKYEKYLLQFSNYINENNNHNLDDITFPNGLIKAVDNYINPNVWIYQYLLLETKKQNDSYRNLIQNISTFDSTLKHKILNNDSNHLVNPVYPPLDENLLNSLNNTQQNYYKNVHIPKELSHYYLKSRNKTKED | not soluble
5 | MAHHHHHHMKNCMMADQRGRSILQYQPIVGDEALEFSRGLAPSTFGFRYAAYMDRNHFLPSGRTAVKHIADPTLAYVMTRYRQCHDFVHIITGCGRSIEEELAVKIFEWKHTGLPLGLLSLLGGAPRLSAAQWAHIRLYWEWASRNAPSSRHGEPAVPMYLNVPWEDMLAKEYDEVVAYTGITPLPDFLEKRQKH | not soluble
6 | MAHHHHHHMKRGREEDKEAEVGGSRVGPSDRRSAATSTEHKPRRLLKGADVGLPLHESVIEETCEVEETHAVLVRFPCFDFFRHVRVCERTRDLQPATSDDAAKASASLASALSDTTFRSGAPPVTSTHDTADVAFAPEAAVFIPGTLETDAPRLLLNGGTPHEMLFEGQWTEVTGEGVSVTNRAVVHLSAKTAGIAVSPAALPLNTSPIMSDAAKSPELARAAAESFPASASQATATPALPIASLLTHTLAGVTADEERRQRAEQQKGWTYDRIDVPSAVLVMHRVR | not soluble
7 | MAHHHHHHMKSSSKDLCKYFCRKCNNFIYYNEACELIYKKIYPDYYKIYYNKYEFDKKTKGKKEVNPKQYDNLYRQLYNNGLCGVNKQRNDFLNKDNINNILLFLNKGSIQCNKCNHIHMWYMK | soluble
8 | MAHHHHHHMKYLTFNRSNKDAIDLCERLEATKIDLANPLLLQYSWVIWEQVSDNKIKQSNNYKDYTRPLAKFNSVQKFWQLWNRLPQPSDLLAQKSMTRLSEDGTLRIIDALMIFRDNIQPMWEDPANAEGGHFEYKFVPRDFPYSQIDEFWNNLVLAIIGCTLKHYNLITGIRLVDKLSTTRHGYVRIEIWYTTVPDESVRNHLRKDLEEHMCNRIDGSHVYPPRGKNFSHSHK | soluble
9 | MAHHHHHHMLANEGRNASANNTTQPSFLILSSKNRHCITHNLTQIQTRCRPHFTEKRLKRGSWLKREEVWIEVQLCYRLGRRFTPTLFSQCAYRPSIRLGPTGTTGLAVPLLKIIYRQNSTIQKHKKEDDEKRCIKKKTIYGT | not soluble
10 | MAHHHHHHMLCTFTTLHERIRILTDAHQLILPEELEAEFPDEAQLIKSMLAANPLQRPQIRKFLRQINKLIVALEAQESDEEAEKPPPPSPLDGTEHSESRNGNDEAATAALVDDSASALATATATSKLGNTPLSTSVAAASSSRGRPVAADLASGGHADSFSDVQDSFSSPLGEQKSRVALLPVFHSEAATGTSVAATSPMAATTSVHDTNAASAGKHVTRRGDSLASLHASTMVKRGNTYHHRRRGSASPNMEAEIGRLHICEMVATGSASRQGFFANDPYGLPTTPVMYTEDADLSTILKRDLQDRTVSAPD | not soluble
11 | MAHHHHHHMLFYITPFPHSEVMRVEEQHQLFLAAKEAQLVRNEATQIILSDASHHSALHGAFVRVLVELPDQSDSYIIARVGAVTTGEPYDGFSHNTSTRTDKYLVLVLPHSLASINGTQYQLNSISNSPMTEDEFNLWLSTMQEPGSVPACAYRGVVEDTDAHLYLESSKIPSRQELLAIGGRIHALGSAASQNSRNPNSRRRRSNNGSSEQSLQQPEWMPKEQQMAIPRISSGNGATLGSIAGMQDYSAFMANPTGGAGPQNGANFNHTNSDPLPSTAGVTEGTNEPSLFVEPTTPRPASATEQELDLPSRHQIRQDILNKLNHRSVVFPQNIDELKLSQLRLVERDMIEYLEHVRDVLSSKQENCVVCLDHVPTVISLPCRHKVLCRLCASAVSTCPVCRSHLFELFEPKEI | not soluble
12 | MAHHHHHHMLGSGKSSGVVNEASNLKANQNLTSAIEEMNTKEYIRNRDLNDVVPTHRRQVEAMMNKGNNNNGKVGLPAYDPAAEKEKERKERGQTHIEDRNDSDDDGELEELRKRRMAQMQQHHAKVAEWRQKQHGQYREISQDEFFSIVVREKGGSDDVCVHFYHKDFETCRVMDSRLLELSRMMLSVKFVKIDAEKSPFLVERLHIKTLPCCVLFHNDVAVDRIYGFEGCIGEDGLLDKELLGERILRAVNCKQEECE | soluble
13 | MAHHHHHHMLLRASASSTLRTRGASCCSGACTGLYGSGSLTVQQRFIEYWGSGVTGRTQPYAQGDMIPRVDNMRYPVNKATSAAASLTGNQSSIAYDTSSIFQVEGFSPLEKEHYQSLRGSTRHKVESLPPHIGKDVMVLLKNMSEEGLLEEHWWARVVKDFPSMKTPCTAEFKSAWEKFYTEASGVADDNEAVKAISRPFLQTQMQKNYIAYAMVWRVAERLCEAFDAVPHVTVYERRGGRLVVERVTKLMLDTIADEPWAHQETTSPLHVDISNFRAWHEAGYW | not soluble
14 | MAHHHHHHMLNCFFGAELKPDGVPISFTIPKGTTLVITQCAVTSVVPPQQSTDAGASSSPAVVAKAYNPVTLCVQGHGLPTRFAVCSLSPAQHITYCPLQLLFSKPVSFVLVPQTGSTAAAAAASSSPSPAPHAGKKTGRNQKHSKTTAGAHGAGAEATAVYPTVHLTGYYERAADEDEEDGSMAMDVMESSDDGENDDLSDDE | soluble
15 | MAHHHHHHMLRHLFRCTAAWAPKRSATREQRLKERVAARMELEAQVKSRVACYPHRSLTRPALRLERHQVNTPLFHSQLLNLNKMATDLQCISFSAPKGHWDAAIVLIKGHPNEANFEVWVNPTVPGYDDRHSIAPMYGMWENCISCGACTAWVIRPQSITCSGLDEYGNEKTEVLDGMRARCLMHELDHLSGRTILDQAQGPEFIVSGIAMGQRDLWPPNFPSAEAYMTSPHQFFDYVKNGPIIPPG | not soluble
16 | MAHHHHHHMLRRLGAGTNGQVRRSASSVSYGYLNLTVSDKIMPYVEGLKKKVIYVSSSKDCKAYVQEIQKGVQAGKINCIGLDVEGYKIGRNGTVSIIQVCTQDVYLFDLYKCDNSYLFVKCLKELLEDRRVIKITHDCREDCSILFNQYSICLNRTFDTQVAFNLLLKETKKDLYQISYDDLLYKCLLLNNKHKIYFHKMISLDQKIYLKRPIAKELIQYAIQDVIYLKPLMWSLVDRLLRVCKDGEAGREPFGEDGEARSNPFGEDGEARSNPFGEENPRSIKNGDDVMSEGAHSNLSEHKTNIIKRVTRLSERYINYQFLNTHVKNEKELQKGMTLDGMVVSCNNLNLYVKLNLSRRGVITNCMRNDFEIGDVVKCVILGFCNNDYIKLGLCDPSLCAVKREEGR | not soluble
17 | MAHHHHHHMLRWTSRYLCASAAAAAGPEVHRDVEEFAVVIVGGGPSGLSAAIRLKQLAGDQRDSFRVGLVEKGSEIGAHTLSGACVEPHGLDELLPGWREQEGSVLSSMTPVTSDAFHVLIGPSRSVKVPWLPSTLHNRGNYITSLGGICKWLGEQAEALGVEIYPGFAAADVVVDEATGAVTGVQLNDRGVDKSGRRTAQYEPGMIFRAKQTIFAEGCRGSCTKQLEKRFGLRTADNPQTFGLGIKEVWEVPKERHHPGTVMHTVGWPTTDKGHDNTYGGAFLYHYGDGLISCGYVVGLDYSNPYCRPYMEMQKWKTHDLIRGQLEGGRPILYGARTLVEGGFSALPKLHFPGGVLAGDCAGFLNLPKIKGTHTAMKSGMLAAEAVYEDAFKGGKEEAASGVECKSYDDCFRSSWLYKELYTVRNVRQSFYKSFKWGMLYTGITSLLLHGREPWTLKHTTPDNLSLKPAKECVEIKYPKPDGTLTFDLLTNHSRSGTAHNADQPCHLRLKDSKVAEEVNLKAYAGPEARFCPAGVYEFVNDKLVINAQNCLHCKACDIKDPTQNINWTVPEGGGGPNYQAQM | not soluble
18 | MAHHHHHHMLWRKQCACRTPEHPTKGYRSVNDSLQLMEIRRTSTPLNYKLLRAYQFLPYEVPFPPHTFASQQWREGENVEAHYALYQTCLCMYLVSSDMSLTVTNMLPALGIHEHDVHKVSRTLCAARCST | not soluble
19 | MAHHHHHHMMEHLNIEKEAVTYASLIAALHNPQYVLPGHTAKELEAHLPGGVSSQQHTNVGEGGGTVTEGQASGPTSNSVDLSGTKTSYEAYRQERIEAGMAWFAACHSAHRTADVFNELLYLLRAKSHWCQFNTVLVQLRGNAVVTETEWPERLSEAGEGVPPSASAAGGASPGSVTILAPRWSTWPNGKTYELLIQRARYVHQWEVMWALYEEMIATGVHGTARVYEVLLLEARSHPPQAVLAAERSGNSDGASSFLLRLYEELRRNGSDVHSFTGTVNVVNAWTRARSRSNRWQS | not soluble
20 | MAHHHHHHMMKEETLNSDNSSAEVSVESPSFSFNCAHFIAYNGFRETLHGHNYNVSLKVRGYVRDDGYVIDFSILKEKVKKVCNKLDHHFILPIYSDVLKFENVKNNIKIICEDNSEYSFPERDCIKLPIKHSSTEEIGQYILNQLIEEMDVSLLKSRHIHYIEISVSESPTQKAIVHKYI | soluble
